{"source": "the DeepSol protein solubility set"}
{"experiment": "soluble on expression in E. coli; label from the status in PepcDB or PDB records"}
{"sequence": "MSTEQPERADRLLAAAQRRGHERVEARDFGEAILAEVHCPRYLDFLKNGYAQWRALPGASQEITPHVHPPREESGYPVSIIGRAGFHIADTSSPMGPHTWEAALAASHSACTAAQLVIEGAPAAYSLSRPPGHHATRDRAGGFCFLNHTAVAAQWLRHHVARVAILDVDVHHGNGTQDIFYERDDVLHVSLHADPAYFYPFFTGYAQETGRGIGAGCNLNLPLPIGTDDEAFLAALRIACRRVLDFKPDVVVVALGLDTYEGDPLNAFRITTPGFARIGQAIAGLALPTVLVQEGGYLSDELGENLATFLDGFCQHLEHHHHHH", "soluble on expression in E. coli": "not soluble"}
{"sequence": "MSLRANCLVQTTEWSACSKTCGMGISTRVTNDNASCRLEKQSRLCMVRPCEADLEENIKKGKKCIRTPKISKPIKFELSGCTSMKTYRAKFCGVCTDGRCCTPHRTTTLPVEFKCPDGEVMKKNMMFIKTCACHYNCPGDNDIFESLYYRKMYGDMAEGHHHHHH", "soluble on expression in E. coli": "not soluble"}
{"sequence": "GMSSMQHIVELTSDLIRFPSMHSRPEQISRCAGFIMDWCAQNGIHAERMDHDGIPSVMVLPEKGRAGLLLMAHIDVVDAEDDLFVPRVENDRLYGRGANDDKYAVALGLVMFRDRLNALKAAGRSQKDMALGLLITGDEEIGGMNGAAKALPLIRADYVVALDGGNPQQVITKEKGIIDIKLTCTGKAAHGARPWMGVNAVDLLMEDYTRLKTLFAEENEDHWHRTVNLGRIRAGESTNKVPDVAEGWFNIRVTEHDDPGALIDKIRKTVSGTVSIVRTVPVFLAADSPYTERLLALSGATAGKAHGASDARYLGENGLTGVVWGAEGFNTLHSRDECLHIPSLQSIYDPLMQLAREMEEHAAV", "soluble on expression in E. coli": "soluble"}
{"sequence": "MSLMTSKTSLALLCDFYEFTMSQGYFKNNKKDQICYFDIFFRKIPDSGSFAIFAGLEDILDFVENLSFDAEDIEFLRKQGIFDTEFLDFLANFKFKGEIYAMREGEVIFPNEPLLCIKATTIEAQLLETFLLLSLNHQSLIATKTNRIVRAAKDSKILEFGSRRAQGSEAALKGARAAFIGGCIGSACTLAGKIYNIPINGTMAHSWVQMFENELEAFKAYVKIYPKNPVFLIDTYDCLNSGLKNAIKVFKEFGIQEGGVRIDSGNLLELSLKIRQELDQAGLQKCKIIVSNALDEWSIKKLKEQNAPIDIFGVGERLITASSDPIFSCVYKLAALEDQGIKPKIKISENNEKSTLPHFKKLFRVYDKNTQKILFDELYVFDENPNQDENLERKELLELVYKEKRLLKKSSLNTIQDYTKEQISKLDESFLDLDRFVKFEVKLSPKLQNITEDLLKTRFEGHHHHHH", "soluble on expression in E. coli": "soluble"}
{"sequence": "MRAVAEQARVKTLRIQPRAMALPPDELAECARTAVNEALADLRSAMPSDAGPGVDPAAALEYLNQVQVEGLRTLELVTGALEQAMAQIRQTAAAHGTPAPHGLHRIVEEVQQTLAAVSRPPQEAPDDLEGTAEAAQGRVRAVAEPGGRIRSLTVQARAMRSPSQELAEHIVTAVNNALDDLQAKTRRETEIVEIDQRRLDELRESAMRQSAEFMRSVSDMINSIQPR", "soluble on expression in E. coli": "not soluble"}
{"sequence": "AVTKLVLVRHGESQWNKENRFTGWYDVDLSEKGVSEAKAAGKLLKEEGYSFDFAYTSVLKRAIHTLWNVLDELDQAWLPVEKSWKLNERHYGALQGLNKAETAEKYGDEQVKQWRRGFAVTPPELTKDDERYPGHDPRYAKLSEKELPLTESLALTIDRVIPYWNETILPRMKSGERVIIAAHGNSLRALVKYLDNMSEEEILELNIPTGVPLVYEFDENFKPLKRYYLGNADEIAAKAAAVANQGKAK", "soluble on expression in E. coli": "soluble"}
{"sequence": "STARVICAGFGGQGVMSMGQLLTYAGMLEGKEVSWLPSYGPEMRGGTANCAVTVSNEPVGSPLITDDATAAILLNIPAFEKFKDDVIPGGKIIVNSSLIKEKVDRTDVDVYYIPANELAAELGNDKVANMIMLGAYLKVSDTVDIESVLEAFKKVFGPRKEKFVPLNREALQKGMDATC", "soluble on expression in E. coli": "not soluble"}
{"sequence": "MGSDKIHHHHHHMQNLDALLIFARVAEMTSFTRAAESLGIQKGRVSMVIRKLERDVGVALLHRTTRSVQLTEDGRAFYSRARDLLAEVQELQSMFSGNGTRLRGRLRVDMPTELARSVVVPALPQLMAAHPELELELSSTDRRVDLVQEGFDCVIRLGPITDDTLIARPLGKLRMTNAASPGYLARYGIPHTLDDLRTQGHRMVHYTLTLGARHPGWEYPNGDGYASLPLPSAMQVNSVQTYHAAGLAGIGLIQAGYSALAHHIESGALVEVLPDLRPEPLAASLVVAHRRNLSPRVRAFMDWIEGVLAPYLD", "soluble on expression in E. coli": "not soluble"}
{"sequence": "MKRSNTVRLVVSKEQHEVLKRLGIATAKCWNEVNWLRMKQYKEGKRVDFGITEKAVYEKYKSVLRVNAQQVARKNAEDWRSFFSLTREKKEGKLPSWFKPRPPGYWKDGRLIVIIRNDRYTVDERNRVVYLKDFNLSLKFKGRLKWHGKQGRLEIIYDEARKIWYAHIPVEVETEKVKEGIKASIDLGIVNLATVYVEDGSWYLFKGGSALSHYENYSKRITIVQKTLHRHRQRRSRRLKLLHEKRSRFLKHALNSMVRRIMEILREKNVGEVVVGYPKEIAKHHGNKLTVNFWNYSYIIKRLEDIGEELGIKVITVDEAYTSKTCSLCGEAHEDGRVKRGLFVCPRTRKAINADLNGAINILHIPESRGSEGNFHRGIGVIGLKTQPVTLSDLSKIKNHYNYSISDYTILHYIQPLEHHHHHH", "soluble on expression in E. coli": "soluble"}
{"sequence": "MGKKVVVIGAGPGGIMAAGKAAERGHNVTLFEKNDRIGKKILISGKGRCNITNNTDIEGLIENIPGNGNFLYSAFYTFSNHDLIEFFEQYGLKTKVERGGRVFPVSDDAKDVNNALLKFLNKAKVNLRLNSPVQEIKAKNNTVTGVVLKDGTEVPCDAVVLATGGASYPGTGSTGDGYVMAKKLGHTIVDLKPSLVPLLAEEEWVKELQGLSLKNVSITILSKAGKKIYTDFGEMLFTHFGVSGPIILSASRHILDYDYKNVKLVIDLKPALSEEKLDERILRDFEKYSRKQYKNSLDDLLPKKMIPVIVKLSGIEPEKFVNQIKKEERRALVRLLKNLTLNINGSRPIKEAIVTAGGVSTDEINPSTMESKLVKGLYFAGEIIDVDGYTGGFNLTIAFSTGYLAGVSC", "soluble on expression in E. coli": "soluble"}
{"sequence": "MKKHDGIIVLLSGGMDSATLLWLAKREFKKVYAISFDYGQRHKVELKYAKELAKLAEVEDHFIVQVPFYTSLKGSALIDESVEVPKGEYPENEPPVTTVPMRNLIFLSIASAFADNLEVNYIGIGVHALDTPYPDCRPEFITAAEAAINAGSTFVAKKKERMHVYAPFLGMSKRDIALLGKELGVPFEKTYSCYMGTEPPCGECPTCIQREEALRGIL", "soluble on expression in E. coli": "soluble"}
{"sequence": "MSLLILIGWQIQVRQPSDYIMNKTEFYADLNRDFNALMAGETSFLATLANTSALLYERLTDINWAGFYLLEDDTLVLGPFQGKIACVRIPVGRGVCGTAVARNQVQRIEDVHVFDGHIACDAASNSEIVLPLVVKNQIIGVLDIDSTVFGRFTDEDEQGLRQLVAQLEKVLATTDYKKFFASVAGEGGSHHHHHH", "soluble on expression in E. coli": "soluble"}
{"sequence": "SATLLHDAVMNPAEVVKQRLQMYNSQHQSAFSCIRTVWRTEGLGAFYRSYTTQLTMNIPFQSIHFITYEFLQEQVNPRRDYNPQSHIISGGLAGALAAAATTPLDVCKTLLNTQENMALSLANVSGRLSGMANAFRTVYQLNGLAGYFKGIQARVIYQMPSTAISWSVYEFFKYILTKRQLENRTLY", "soluble on expression in E. coli": "soluble"}
{"sequence": "MSEVTDLTVIEIKPEQAPVLYVAGGLDAYLEQIRQAVNEVPDLSTKKGRDRVASLAAQVSRSKTAIEKPGREYLKRLKEAVRPAEAEIKRFVDACDELRDATRRPLTEWEAEQERIKAEEAMNALHAEALEMNIKFDQELAAKFEADHEMALLMNKDFDRDREEQRRLAEQARREHEERIKREAAEQARRDAEAKHKAEIEAAARREAEEKARAELAERQRIEAEQRAEREKKETEERARREKEEAVAAERRRQEEAEAARLVEEQRKAEEEARRAADKEHRRTVNRRVYADLIAQGIPEEYAQKAVLAIAGGKVQDAHIKY", "soluble on expression in E. coli": "not soluble"}
{"sequence": "MDELNSPLGERAQGASLAHVVWSDPQWLERYPLTFENVLTYFSRSPFYDPTCNNELVRMQMHPELQGEMLYYTQREEELLLGMQGVEYVPLCSSDAHELFIIRKQVRRSADEVHVTNLYYILYGQVYEAPAFSTVLLVRLRQSADFLVRSLGLLRQWLSKKEYGEPGATGHGHEDTLLLQLLRKAQQRNRQL", "soluble on expression in E. coli": "not soluble"}
{"sequence": "MEANILSTHKSKILVFKGWSERQKSVVFIPIEAVLEGHNIEVQFFEKPNEPVTFQVKDKNGNIVFQDMTTPDNLEIYQIDVSGFKTGQYELLYIEKDVTLIGEFEIE", "soluble on expression in E. coli": "not soluble"}
{"sequence": "MGSDKIHHHHHHMENQTGIFNSYKIDPAHFDEAWLPTGDVRMHYKHLMETFKGLDIEEYLKINELAKGNLFNQGVTFNVYSENAEGVERLFPFDLFPRMIPSEEWKTIEVGIKQRNKAINLFLWDIYHEQKILKDKIVPSELLFSSQFYKKEMIGVDPPAGIYIHITGTDIIKHNDGKYYVLEDNLRCPSGVSYVLSNRETMKKIFFNLFSRYHVKPIMQYTEKLLSTIRSVAPDRIDNPLCVILTPGTYNSAYFEHSFLAHQMGIQLVEGRDLFVEKNFVYMKTIKGPKRVDVIYRRVDDDFIDPLVFNPKSVLGVPGLMSAYQAGNVTIINAPGTGVADDKAVYTYVPDIIKYYLGEEPILNNVPTYRCERPDEMKYVLENMHNLVVKPVDESGGYGVFIGNRKTKEEIEEYKKLILDTPRKYIAQPIMSLSVLSTFIEDSNESEQRHIDLRSFALMGKEETYVLDGGLTRVALSKGNLIVNSSQGGGSKDTWVIENY", "soluble on expression in E. coli": "not soluble"}
{"sequence": "MAHHHHHHMERCLLLSAWPTLHEREVKEASEFVRSSSVSRRDSMALSLNHAGAFPSASHSGTHRGSFATMLATGSRAASPHPHDPCATPPPGIRCLDLPEHYHARDTRKNKSAVNDYDEDEDDGAYRSGSCSRCLSRASSFSLGAGGMTPLAWKMSSSMNGESPSCRATESPCSAFAQEHLVATAVMERRVNRMAGGISFQGMTPMDALLAGRLAPPDRREEQQELDESGDARGVSPPFRERSMAPAELVAERTGRQQPR", "soluble on expression in E. coli": "not soluble"}
{"sequence": "MANRLRTGIDVLDRKLDGGIPAGSIVVLSAQPASQAELFLYELTATRGTLWLSLDRTAESVIASIEQTPANTGDPTVRHISGEAPLDNAGKLVSALPETSNLIVDPLDVLEAQEPHSRFRAFMNDLQNHIVNTGSLAIVHCLDGRDVPPLRDTTEHFADVVFQLNTTTNGDEVENRLAIPKFRGGRAPTDIIKLNLVEEVSIDTSRDIALEHHHHHH", "soluble on expression in E. coli": "not soluble"}
{"sequence": "MVLQHQFDGLLEVMPENPRKKLRFTSRHIAAVNRYLDDKYFDPKEEKWSNLHPKYRIVLENLIRQTGPRLSPQVTLFLPNTFNGAFAPRQPFGLPSYFYHTCKKAESITQATHAMNQEYTVKMKNLNDQIDAYIYDTHLDILKVTEKRGDYLKNIPHDFGEHPDNPRNGQDNPKIELEHREILWNGLKVVLENGRFYETSTTETNVVEIFLNDELLNDKLYILKAEFFAAFYASEEATQIEVMVLFDNYFMAGGTIQYGEKLVCHLQEIPGTYGTTSFSCSSDFKSMVRKCGLPPIPRIGSPWNSDLMESIAELQQAIIRLENRVYDKDYIGKYTHENGGFIEAYCASLKNLSNTLYLLEEGTIELPAHSKNWTPREKLAYLSNFAPEKEMTSCEIGKPCASFKMIIGLAKSLRKNPYNFSFSGELLAEFSFQIRMAMLSMYLVLERNLPDAPHDNSQFVMTTLSHFRRLYIDNVKKIYQIFPHFPVEMRPVVLDVMCQRATPANYQEILEIYSYEPDMVTKMVQKYPYILLFTPHVTRPPIKLIRDFSEYMEKEMMSSEQAQMSRVDVIVLEENEPDGQESGVDYILARSNKRARVDFEKLDLLLESIMPEEAPARDYRKNTSEGHLAEIFGPTNNEEAEEEPSLPSCSYSTPKRVNRAKPALDSPSGNLRTANKDQVDLLDNVMQRSEKRQWKM", "soluble on expression in E. coli": "not soluble"}
{"sequence": "YHLSLKQVNRLFDDDMVDFGEAALRLLDLATEDQAGEDGSITEIIERSREAIQGLPLLRRESALGYALWRDGQPLLSSLNLPPEITAQGPGFSTVEAQGTHWRVLQLNIDGFQIWISENLIYRQHTMNLL", "soluble on expression in E. coli": "not soluble"}
